Measurements: the supplement of paper PMC10567573

B1: C20orf112 (parent)
chain: YANGGLNYSYRGYGALSSNLQPPA

Variants of: B1
Test: protein stability index of a GFP-peptide fusion (GPS, HEK-293T) (PSI 1-6); higher = more stable
Settings: c terminus: a fixed tail appended
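Further: lentivirally expressed fusions sorted by FACS into six bins by GFP to DsRed ratio, PSI derived from sequencing read proportions per bin multiplied by bin number.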

| Variant | protein stability index |
| --- | --- |
| A2Q | 1.4 |
| A2W | 2.22 |
| A2R | 2.22 |
| A2K | 2.19 |
| A2N | 2.3 |
| A2L | 1.93 |
| A2E | 2.63 |
| A2S | 1.54 |
| A2M | 1.68 |
| A2T | 1.99 |
| A2V | 2.49 |
| A2C | 1.87 |
| A2D | 2.81 |
| A2H | 1.62 |
| A2Y | 2.63 |
| A2I | 2.1 |
| A2F | 2.07 |
| A2G | 1.95 |
| S17G | 3.12 |
| S17P | 1.9 |
| S17M | 2.17 |
| S17I | 3.55 |
| S17T | 2.15 |
| S17H | 1.9 |

| Variant | protein stability index |
| --- | --- |
| S17D | 1.87 |
| S17W | 1.85 |
| S17Y | 2.53 |
| S17L | 1.39 |
| S17F | 2.49 |
| S17K | 1.94 |
| S17R | 2.56 |
| S17Q | 1.55 |
| S17V | 2.33 |
| S17E | 2.23 |
| S17N | 1.88 |
| S17A | 1.58 |
| S17C | 2.2 |
| Y10K | 1.73 |
| Y10H | 2.15 |
| Y10D | 1.54 |
| Y10Q | 1.77 |
| Y10M | 2.97 |
| Y10C | 2.23 |
| Y10I | 1.99 |
| Y10L | 2.3 |
| Y10S | 2.48 |
| Y10F | 1.5 |
| Y10G | 1.5 |

| Variant | protein stability index |
| --- | --- |
| Y10P | 1.92 |
| Y10W | 2.66 |
| Y10R | 2.01 |
| Y10V | 1.89 |
| Y10A | 1.9 |
| Y10T | 2.25 |
| Y10E | 1.32 |
| Y10N | 1.89 |
| S9H | 1.82 |
| S9E | 1.43 |
| S9T | 1.82 |
| S9P | 1.7 |
| S9W | 2.46 |
| S9A | 2.35 |
| S9V | 2.6 |
| S9K | 1.57 |
| S9F | 2.99 |
| S9G | 1.88 |
| S9C | 1.7 |
| S9M | 2.77 |
| S9D | 1.97 |
| S9R | 1.67 |
| S9Y | 1.59 |
| S9N | 1.89 |

| Variant | protein stability index |
| --- | --- |
| S9I | 2.58 |
| S9Q | 1.46 |
| G4L | 2.01 |
| G4N | 2.02 |
| G4T | 1.98 |
| G4V | 2.32 |
| G4Q | 2.06 |
| G4M | 1.48 |
| G4A | 2.81 |
| G4P | 2.18 |
| G4R | 1.38 |
| G4I | 1.93 |
| G4E | 2.01 |
| G4K | 2.4 |
| G4F | 1.42 |
| G4S | 1.66 |
| G4D | 2.05 |
| G4H | 1.6 |
| G4W | 1.99 |
| G4Y | 2.38 |
| G4C | 1.91 |
| N7R | 1.52 |
| N7D | 1.36 |
| N7V | 1.15 |

| Variant | protein stability index |
| --- | --- |
| N7T | 1.2 |
| N7Q | 2.08 |
| N7F | 3.66 |
| N7I | 2.27 |
| N7P | 2.47 |
| N7W | 2.86 |
| N7H | 3.47 |
| N7C | 2.1 |
| N7A | 2.81 |
| N7Y | 2.53 |
| N7E | 2.52 |
| N7G | 3.08 |
| N7M | 2.76 |
| N7K | 1.81 |
| N7L | 3.75 |
| N7S | 2.38 |
| G14L | 3.28 |
| G14M | 2.18 |
| G14C | 3.39 |
| G14N | 2.87 |
| G14I | 3.6 |
| G14P | 2.54 |
| G14W | 3.05 |
| G14E | 2.45 |

| Variant | protein stability index |
| --- | --- |
| G14F | 2.52 |
| G14V | 2.4 |
| G14K | 2.21 |
| G14H | 2.07 |
| G14D | 1.54 |
| G14A | 1.76 |
| G14S | 2.32 |
| G14Q | 1.76 |
| G14T | 2.8 |
| G14Y | 2.91 |
| G14R | 2.7 |
| G5I | 2.21 |
| G5T | 1.91 |
| G5H | 2.08 |
| G5E | 2.4 |
| G5A | 1.99 |
| G5R | 1.98 |
| G5K | 1.82 |
| G5W | 2.37 |
| G5F | 1.98 |
| G5L | 1.9 |
| G5N | 1.72 |
| G5D | 2.08 |
| G5P | 2.02 |

| Variant | protein stability index |
| --- | --- |
| G5V | 2.03 |
| G5S | 1.65 |
| G5Y | 1.86 |
| G5Q | 1.93 |
| G5M | 2.49 |
| G5C | 2.2 |
| G12K | 1.97 |
| G12W | 2.08 |
| G12S | 1.91 |
| G12R | 1.08 |
| G12D | 1.42 |
| G12V | 3.16 |
| G12M | 2.48 |
| G12I | 2.72 |
| G12A | 2.46 |
| G12T | 2.23 |
| G12H | 2.55 |
| G12L | 2.31 |
| G12E | 1.63 |
| G12N | 1.93 |
| G12Y | 3 |
| G12C | 2.85 |
| G12F | 1.67 |
| G12P | 1.91 |

| Variant | protein stability index |
| --- | --- |
| G12Q | 1.86 |
| L6T | 1.96 |
| L6S | 1.65 |
| L6V | 1.85 |
| L6G | 1.73 |
| L6H | 1.97 |
| L6M | 2.3 |
| L6K | 1.57 |
| L6F | 2.08 |
| L6W | 2.27 |
| L6P | 2.5 |
| L6R | 2.1 |
| L6E | 1.97 |
| L6I | 2.33 |
| L6C | 2.24 |
| L6Y | 2.47 |
| L6A | 2.03 |
| L6N | 1.47 |
| L6D | 1.9 |
| L6Q | 1.55 |
| Y8F | 1.73 |
| Y8N | 2.22 |
| Y8T | 1.84 |
| Y8D | 1.95 |

| Variant | protein stability index |
| --- | --- |
| Y8S | 1.89 |
| Y8M | 1.95 |
| Y8W | 2.23 |
| Y8H | 1.85 |
| Y8G | 2.19 |
| Y8C | 2.22 |
| Y8I | 2.15 |
| Y8V | 2.19 |
| Y8Q | 1.64 |
| Y8E | 2.13 |
| Y8R | 2.04 |
| Y8A | 1.76 |
| Y8K | 1.83 |
| Y8L | 1.94 |
| Y8P | 1.37 |
| S18G | 1.58 |
| S18C | 2.17 |
| S18I | 1.78 |
| S18F | 1.72 |
| S18H | 1.8 |
| S18E | 1.56 |
| S18K | 1.61 |
| S18M | 2.06 |
| S18N | 1.57 |

| Variant | protein stability index |
| --- | --- |
| S18P | 2.2 |
| S18L | 1.85 |
| S18D | 1.42 |
| S18A | 2.15 |
| Y13T | 1.66 |
| Y13L | 2.87 |
| Y13D | 1.82 |
| Y13A | 1.93 |
| Y13Q | 2.13 |
| Y13M | 2.56 |
| Y13F | 2.5 |
| Y13H | 2.01 |
| Y13E | 1.33 |
| Y13C | 2.63 |
| Y13P | 2.04 |
| Y13N | 1.84 |
| Y13K | 2.12 |
| Y13I | 2.29 |
| Y13W | 2.96 |
| Y13S | 1.96 |
| Y13G | 1.77 |
| Y13R | 1.42 |
| Y13V | 1.73 |
| R11V | 2.09 |

| Variant | protein stability index |
| --- | --- |
| R11F | 2.31 |
| R11A | 1.72 |
| R11Q | 2.32 |
| R11I | 1.98 |
| R11S | 2.19 |
| R11M | 2.48 |
| R11T | 1.53 |
| R11L | 2.31 |
| R11D | 1.82 |
| R11Y | 2.21 |
| R11W | 2.44 |
| R11G | 2.24 |
| R11P | 2.06 |
| R11E | 1.94 |
| R11N | 2.27 |
| R11H | 1.69 |
| R11K | 2.09 |
| R11C | 3.49 |
| L16G | 2.61 |
| L16D | 1.68 |
| L16Q | 2.02 |
| L16A | 2.11 |
| L16E | 2.54 |
| L16T | 1.76 |

| Variant | protein stability index |
| --- | --- |
| L16P | 2.57 |
| L16Y | 2.05 |
| L16N | 2.61 |
| L16C | 1.64 |
| L16M | 1.75 |
| L16F | 1.67 |
| L16W | 2.68 |
| L16R | 2.3 |
| L16H | 2.48 |
| L16K | 1.87 |
| L16I | 2.43 |
| L16V | 2.21 |
| L16S | 2.03 |
| N3R | 2.25 |
| N3Q | 1.65 |
| N3S | 1.99 |
| N3H | 1.55 |
| N3I | 2.11 |
| N3D | 2.56 |
| N3E | 1.6 |
| N3L | 2.25 |
| N3Y | 1.8 |
| N3K | 1.7 |
| N3G | 1.98 |

| Variant | protein stability index |
| --- | --- |
| N3C | 1.69 |
| N3T | 1.65 |
| N3F | 2.04 |
| N3V | 2.08 |
| N3W | 1.82 |
| N3P | 2.35 |
| N3A | 1.64 |
| N3M | 1.5 |
| Y1T | 2.83 |
| Y1V | 2.2 |
| Y1W | 1.85 |
| Y1S | 3.12 |
| Y1Q | 3.32 |
| Y1H | 2.64 |
| Y1G | 3.16 |
| Y1D | 2.9 |
| Y1R | 2.97 |
| Y1M | 2.87 |
| Y1I | 2.45 |
| Y1E | 3.15 |
| Y1A | 3.08 |
| Y1P | 2.43 |
| Y1F | 1.86 |
| Y1C | 1.96 |

| Variant | protein stability index |
| --- | --- |
| Y1K | 2.96 |
| Y1L | 2.67 |
| Y1N | 3.08 |
| A15N | 2.4 |
| A15Y | 2.97 |
| A15H | 2.62 |
| A15I | 2.42 |
| A15T | 2.75 |
| A15R | 2.8 |
| A15E | 2.37 |
| A15G | 1.87 |
| A15F | 2.68 |
| A15K | 2.24 |
| A15P | 2.52 |
| A15M | 1.49 |
| A15S | 2.22 |
| A15V | 1.85 |
| A15D | 2.07 |
| A15Q | 1.77 |
| A15W | 1.88 |
| A15C | 2.32 |
| A15L | 2.6 |
